Source: patent publication US20050176933A1

Target: GST-HAb18GE (a fusion of the extracellular domain of hepatoma-associated antigen HAb18G with GST) (human) (UniProt P35613)
Experiment: indirect ELISA on coated GST-HAb18GE; positive control; mean ± S

Chain of UniProt P35613 (P35613 138-325): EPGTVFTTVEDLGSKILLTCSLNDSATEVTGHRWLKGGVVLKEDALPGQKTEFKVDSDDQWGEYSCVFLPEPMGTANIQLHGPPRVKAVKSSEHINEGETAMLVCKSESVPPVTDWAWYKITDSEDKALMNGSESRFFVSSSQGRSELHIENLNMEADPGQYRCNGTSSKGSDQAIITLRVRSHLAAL

A450 (Indirect ELISA): 1.02 A450
B1: murine anti-human hepatoma McAb HAb18 (antibody, mouse IgG1, V domains shown)
VH: EVKLEESGGGLVQPGGSMKLSCVASGFTFSDAWMDWVRQSPEKGLEWVAEIRSKANNHAPYYTESVKGRFTISRDDSKSIIYLQMNNLRAEDTGIYYCTRDSTATHWGQGTLVTVSS
VL: SIVMTQTPTFLVVSAGDRVTITCKASQSVINDVAWYQQKPGQSPKLLIFYASNRNTGVPDRFTGSGYGTDFTFTISTVQAEDLAVYFCQQDYSPPFTFGSGTKLEIK
modifications: HRP-labelled in the competitive ELISAs
